{"source": "patent US20260021197A1", "about": "“NANOPARTICLES AND PEPTIDES FOR THE DELIVERY OF CARGOS TO CHONDROCYTES” (4BASEBIO UK LTD, priority 2022, published 2026)", "key": {"[1]": {"assay": "Biophysical characterisation of nanoparticles by dynamic light scattering (size, PDI)", "assay_type": "physicochemical", "procedure": "The size in nm by Dynamic Light Scattering (DLS), zeta potential in mV by Electrophoretic Light Scattering (ELS), and concentration of particles per ml by Multi-Angle Dynamic Light Scattering (MADLS) of the closed linear DNA/mRNA-lipid-peptide nanoparticles was determined using the Zetasizer Ultra (Malvern). Complexes were prepared as before, except formulated in nuclease-free water rather than Opti-MEM. Samples containing 0.7 μg hpDNA were diluted in 1 ml for analysis."}, "[2]": {"test_system": "primary human chondrocytes", "assay": "Transfection of primary human chondrocytes, luciferase expression", "assay_type": "cell-based", "settings": "FIG. 3, mRNA:lipid:peptide nanoparticles, DOTMA-DOPE 2:1 + 10% cholesterol, 4 h post-transfection", "procedure": "(§1) Peptides identified via phage display with affinity toward primary human chondrocytes, and peptides identified in the literature with desirable chondrocyte binding characteristics were synthesised via solid-phase peptide synthetic chemistry in various conformations. A sixteen-lysine tail group was attached using standard synthesis methods (amsbio, UK).\nTransfections in primary human chondrocyte cells were performed with a range of peptide: liposome:nucleic acid cargo mass ratios and N/P ratios. Transfections were performed in a 96-well plate at a density of 2000 cells per well seeded 5 days prior to transfection. Charge and mass ratio of components in the transfection complex varied; DNA and mRNA were maintained at a constant mass of 300 ng per well. The molar ratio of the cationic lipid DOTMA to the phospholipid DOPE was kept at 2:1 (DD 2:1), while cholesterol was added at a molar percentage of 10% of the total lipid content. The mass ratio of closed linear DNA:lipid and mRNA:lipid was maintained at 1:3, while the chondrocyte-cell binding peptides were in some cases altered.\n(§2) Transfection complexes were formed via electrostatic interaction by vigorous pipetting, before diluting in a final volume of 200 ul per well, with a DNA concentration of 1.5 ng/ul. All dilutions were performed with OptiMEM reduced serum media. Controls included cells with no transfection complexes added (OptiMEM only), along with liposomes encapsulating nucleic acid cargo without peptide.\nTransfection complexes were incubated for 30 min at RT before adding to cells. All conditions were performed in triplicate. Cells were incubated at 37° C. for 4 hours, before replacing media with growth media. 48 h post-transfection for DNA and 4 h post-transfection for RNA, the cells were rinsed in PBS, before resuspension in Reporter Lysis buffer (Promega). Plates were incubated at 4° C. for 20 minutes, before −80° C. for 40 minutes. After thawing, luciferase activity was measured following injection of the luciferase assay substrate on the ClarioSTAR plus plate reader (BMG Labtech, Aylesbury, UK). Luciferase expression was normalised to protein content using Pierce BCA Protein Assay, with absorbance measured at 562 nm. Luciferase activity was expressed as Relative Light Units per mg of protein (RLU/mg)."}, "[3]": {"test_system": "primary human chondrocytes", "assay": "Transfection of primary human chondrocytes, GFP expression by flow cytometry", "assay_type": "cell-based", "settings": "closed linear DNA:lipid:peptide nanoparticles, 48 h post-transfection", "procedure": "as §1\nTransfections in primary human chondrocyte cells were performed with a range of peptide:liposome:nucleic acid cargo mass ratios and N/P ratios. Transfections were performed in a 96-well plate at a density of 2000 cells per well seeded 5 days prior to transfection. Charge and mass ratio of components in the transfection complex varied; DNA and mRNA were maintained at a constant mass of 300 ng per well. […] The mass ratio of closed linear DNA:lipid and mRNA:lipid was maintained at 1:3, while the chondrocyte-cell binding peptides were in some cases altered.\nas §2\nTransfection complexes were incubated for 30 min at RT before adding to cells. All conditions were performed in triplicate. Cells were incubated at 37° C. for 4 hours, before replacing media with growth media. 48 h post-transfection, the cells were rinsed in PBS, before incubation in 0.05% Trypsin EDTA (Gibco) to detach the cells. 48 h post-transfection, cells were resuspended in PBS for analysis by flow cytometry using the Aligent Novocyte flow cytometer."}, "[4]": {"assay": "Ribogreen encapsulation efficiency assay", "assay_type": "physicochemical", "settings": "FIG. 4; mRNA:lipid:peptide nanoparticles at N/P ratio 3.98", "procedure": "Encapsulation efficiency (EE %) was measured using Quant-iT™ RiboGreen™ RNA Assay Kit (Invitrogen™, Thermo Fisher Scientific, Waltham, MA, USA). Briefly, mRNA was mixed with RiboGreen™ in a total volume of 100 ul TE buffer (10 mM Tris-HCl, 1 mM EDTA, pH 7.5) per well of a 96-well plate and incubated for 10 minutes at RT in the absence of light. Lipid and peptide components were each diluted in a volume of 50 ul TE buffer before mixing thoroughly with the mRNA-Ribogreen via pipette. Nanocomplexes were incubated for 30 minutes at RT in the absence of light. Encapsulation efficiency was measured by quantifying the fluorescence (λem=520 nm, λex=480 nm) of RNA encapsulated in nanoparticles vs. the fluorescence of naked mRNA complexed with Ribogreen™ reagent using a fluorimeter (ClarioStar, BMG Labtech)."}, "[5]": {"settings": "FIG. 5, closed linear DNA, DOTMA-DOPE 2:1 + 10% cholesterol"}, "[6]": {"settings": "FIG. 1, DOTMA-DOPE 2:1 + 10% cholesterol"}, "[7]": {"settings": "FIG. 6, mRNA, DOTMA-DOPE 2:1 + 10% cholesterol"}}, "data": [{"sequence": "KKKKKKKKKKKKKKKKGACDWRVIIPPRPSAC [HC5 C-N]", "values": [{"measurement": "average size by DLS", "setting": "[1]; [5]", "value": 100, "unit": "nm"}, {"measurement": "luciferase expression", "setting": "[2]; N/P ratio 3.48", "value": "3.2E+11", "unit": "RLU/mg protein"}, {"measurement": "luciferase expression", "setting": "[2]; N/P ratio 4.48", "value": "4E+11", "unit": "RLU/mg protein"}, {"measurement": "luciferase expression", "setting": "[2]; N/P ratio 7.48", "value": "3.3E+11", "unit": "RLU/mg protein"}, {"measurement": "luciferase expression", "setting": "[2]; N/P ratio 8.48", "value": "2.5E+11", "unit": "RLU/mg protein"}, {"measurement": "GFP expression (% of the cells expressing GFP)", "setting": "[3]; [6]", "value": 21, "unit": "%"}, {"measurement": "median fluorescence intensity (MFI)", "setting": "[3]; [6]", "value": "1E+06"}]}, {"sequence": "KKKKKKKKKKKKKKKKGACHDSQLEALIKFMC [HC4 C-N]", "values": [{"measurement": "Polydispersity Index (PDI)", "setting": "[1]; [5]", "value": 0.45}]}, {"sequence": "KKKKKKKKKKKKKKKKGACRLDPTSYLRTFWC [HC3 C-N]", "values": [{"measurement": "average size by DLS", "setting": "[1]; [7]", "value": 78, "unit": "nm"}, {"measurement": "Polydisperse Index (PDI)", "setting": "[1]; FIG. 6 passage, printed as closed linear DNA, DOTMA-DOPE 2:1 10% cholesterol", "value": 0.37}, {"measurement": "GFP expression (% of the cells expressing GFP)", "setting": "[3]; [6]", "value": 9, "unit": "%"}, {"measurement": "median fluorescence intensity (MFI)", "setting": "[3]; [6]", "value": "1E+05"}]}, {"sequence": "KKKKKKKKKKKKKKKKGADWRVIIPPRPSA [HC5 L-N]", "values": [{"measurement": "encapsulation efficacy (% of mRNA encapsulated)", "setting": "[4]", "value": 96.86, "unit": "%"}]}, {"sequence": "KKKKKKKKKKKKKKKKGAHDSQLEALIKFM [HC4 L-N]", "values": [{"measurement": "average size by DLS", "setting": "[1]; [7]", "value": 36.65, "unit": "nm"}]}, {"sequence": "KKKKKKKKKKKKKKKKGARLDPTSYLRTFW [HC3 L-N]", "values": [{"measurement": "Polydispersity Index (PDI)", "setting": "[1]; [5]", "value": 0.2}, {"measurement": "Polydisperse Index (PDI)", "setting": "[1]; [7]", "value": 0.13}]}, {"sequence": "KKKKKKKKKKKKKKKKRVRRCDWRVIIPPRPSAC [HC5 C-C]", "values": [{"measurement": "average size by DLS", "setting": "[1]; [5]", "value": 51.37, "unit": "nm"}, {"measurement": "GFP expression (% of the cells expressing GFP)", "setting": "[3]; FIG. 2, C16-DOPE 2:1 with 10% cholesterol", "value": 24, "unit": "%"}]}]}
